Where two headings read alike, the source gives them in different places.
B1: eSrtA(4S-5): 5mut + N98D A104V A118T F122A K134R I182V (protein)
chain: QAKPQIPKDKSKVAGYIEIPDADIKEPVYPGPATREQLDRGVSFVEENESLDDQNISITGHTAIDRPNYQFTNLRAAKKGSMVYFKVGNETRKYKMTSIRNVKPTAVEVLDEQKGKDKQLTLVTCDDYNEETGVWETRKIFVATEVK
B2: 4S.6B: 5mut + N98D A104V A118S F122A K134P I182V E189P (protein)
chain: QAKPQIPKDKSKVAGYIEIPDADIKEPVYPGPATREQLDRGVSFVEENESLDDQNISISGHTAIDRPNYQFTNLPAAKKGSMVYFKVGNETRKYKMTSIRNVKPTAVEVLDEQKGKDKQLTLVTCDDYNPETGVWETRKIFVATEVK
B3: eSrtA(2A-3.5) (protein)
chain: QAKPQIPKDKSKVAGYIEIPDADIKEPVYPGPATREQLNRGVSFAEENESLDDQNISIAGHTFIDRPNYQFTNLKAAKKGSMVYFKVGNETRKYKMTSIRNVRPTAVEILDEQKGKDKQLTLFTCDDYNEETGVWETRKIFVATEVK
B4: eSrtA(4S-4): 5mut + A104V A118T F122S I182V (protein)
chain: QAKPQIPKDKSKVAGYIEIPDADIKEPVYPGPATREQLNRGVSFVEENESLDDQNISITGHTSIDRPNYQFTNLKAAKKGSMVYFKVGNETRKYKMTSIRNVKPTAVEVLDEQKGKDKQLTLVTCDDYNEETGVWETRKIFVATEVK

How the values were obtained:
Type in all cases: biochemical
[1] = system: LPESG (Abz-LPESGK(Dnp)-CONH2); assay: In vitro sortase kinetics HPLC assay, LPESG substrate; settings: for kcat, 1 mM LxExG (Hz) / kHydrolysis (Hz): GGG varied; for Specificity: 4S (LPESG) over wt (LPETG); for specificity (relative cat. Efficiency, fold): ratio of kcat/Km between 4S (LPESG) and wt (LPETG) substrates; for kHydrolysis (Hz): 1 mM
Protocol: (§1) See below for details on sortase expression and purification, and on the synthesis of Abz-LPETGK(Dnp)-CONH2 (SEQ ID NO: 19). […] Reactions were initiated with the addition of enzyme and incubated at 22.5° C. for 3 to 20 minutes before quenching with 0.5 volumes of 1 M HCl. Five to ten nmol of peptide from the quenched reactions were injected onto an analytical reverse-phase Eclipse XDB-C18 HPLC column (4.6×150 mm, 5 μm, Agilent Technologies) and chromatographed using a gradient of 10 to 65% acetonitrile with 0.1% TFA in 0.1% aqueous TFA over 13 minutes. Retention times under these conditions for the Abz-LPETGK(Dnp)-CONH2 (SEQ ID NO: 19) substrate, the released GKDnp peptide, and the Abz-LPETGGG-COOH (SEQ ID NO: 20) product were 12.8, 10.4, and 9.1 min, respectively. To calculate the percent conversion, the ratio of the integrated areas of the Abz-LPETGGG-COOH (SEQ ID NO: 20) and Abz-LPETGK(Dnp)-CONH2 (SEQ ID NO: 19) peptide Abs220 peaks was compared to a standard curve generated by mixing the product and starting peptide in known ratios. To determine […] and Km, reaction rates were fit to the Michaelis-Menten equation using OriginPro 7.0 software. All kinetics values reported represent the average of at least three measurements. Percent conversion was also calculated by using the ratio of the integrated areas of the GK(Dnp)-CONH2 and Abz-LPETGK(Dnp)-CONH2 peptide Abs355 peaks were compared directly (Example 5). To determine kcat and Km, LPETG, reaction rates were fit to the Michaelis-Menten equation using Microsoft Excel using the Solver add-in. To determine Km,GGG and KH, reaction rates were fit to the modified Michaelis-Menten, for which KH is as defined when KH<<Km,GGG.
(§2) Assays to determine eSrtA, eSrtA(2A-9) and eSrtA(4S-9) specificity were performed by preparing 10 μM stocks of Abz-LXEXGK(Dnp) (SEQ ID NO: 75) peptides in 300 mM Tris pH 7.5, 150 mM NaCl, 5 mM CaCl2, 5% v/v DMSO, and 100 mM Gly-Gly-Gly-COOH (GGG). Reactions were performed by adding eSrtA(2A-9) to a final concentration of 450 nM, eSrtA(4S-9) to a final concentration of 115 nM or eSrtA to a final concentration of 47.5 nM and a final volume of 100 μL, then incubating at 22.5° C. for 15 minutes. Reactions were quenched by the addition of 0.2 volumes of 5 M HCl, then were injected onto an analytical reverse-phase Eclipse XDB-C18 HPLC column (4.6×150 mm, 5 μm, Agilent Technologies) and chromatographed using a gradient of 10 to 65% acetonitrile with 0.1% TFA in 0.1% aqueous TFA over 13 minutes. Retention times under these conditions for the Abz-LPETGK(Dnp)-CONH2 (SEQ ID NO: 19) substrate, the released GKDnp peptide, and the Abz-LPETGGG-COOH (SEQ ID NO: 20) product were 12.8, 10.4, and 9.1 min, respectively, while the remaining Abz-LXEXGK(Dnp)-CONH2 (SEQ ID NO: 74) substrates varied in retention time between 9 and 13 minutes. To calculate the percent conversion, the ratio of the integrated areas of the GK(Dnp)-CONH2 and Abz-LPETGK(Dnp)-CONH2 (SEQ ID NO: 19) peptide Abs355 peaks were compared directly. Subsequent determination of kcat/Km and KH were performed as described for in vitro SrtA characterization.
(§3) In each case, rate constants were determined by measuring enzyme velocity at eight different substrate concentrations by HPLC assay, then fit using nonlinear regression to the Michaelis-Menten equation, yielding kcat and Km. KH was calculated by measuring enzyme velocity at 1 mM target substrate and eight different GGG concentrations by HPLC assay, then fitting the resulting curves using nonlinear regression to the modified Michaelis-Menten equation.

[2] = system: LPETG (Abz-LPETGK(Dnp)-CONH2); assay: In vitro sortase kinetics HPLC assay, LPETG substrate; settings: substrate wt (LPETG)
Protocol: as §1, §2, §3

[3] = system: LAETG (Abz-LAETGK(Dnp)-CONH2); assay: In vitro sortase kinetics HPLC assay, LAETG substrate
Protocol: as §1, §2, §3

[4] = 1 mM 4S (LPESG) substrate, read-out: Km, GGG
[5] = Example 5 variants, substrate 4S (LPESG)
[6] = Example 5 variants, substrate 4S (LPESG), read-out: Avg KM
[7] = substrate 4S (LPESG), read-out: Km, LxExG
[8] = Example 5 variants, read-out: Avg KM

Row | Molecule | Khydrolysis ([1]; 1 mM 4S (LPESG) substrate) | kcat, 1 mM LxExG (Hz) ([1]; 1 mM 4S (LPESG) substrate) | Km [1, 4] | Avg kcat (Hz) [1, 5] | Km [1, 6] | increased affinity (KM) for the LPESG substrate as compared to the LPETG substrate ([1]; FIG. 2) | Specificity ([1]; ratio of kcat/KM) | specificity (relative cat. Efficiency, fold) [1] | kL/KL/KH ([1]; substrate 4S (LPESG)) | kHydrolysis (Hz) ([1]; substrate 4S (LPESG)) | kcat, 10 mM GGG (Hz) ([1]; substrate 4S (LPESG)) | Km [1, 7] | Avg kcat (Hz) ([2]; Example 5 variants) | Km [2, 8] | kcat, 10 mM GGG (Hz) [2] | Km ([2]; read-out: Km, LxExG) | further results
1 | B1 | 190.8 µM | 1.342 Hz | 26.7 mM | 0.3877 Hz | 0.076 mM | ~8 fold | 9.672 | 9.999 fold | 2.69E+07 | 0.009551 Hz | 0.3877 Hz | 0.076 mM | 0.00606 Hz | 11.7 µM | 0.006149 Hz | 12.2 µM | increase in kcat/Km for LPESG as compared to LPETG ([1]; FIG. 2): ~2 fold; KH (KH,LPESG) ([1]; LPESG substrate): 190 ± 16 µM
2 | B2 | 122.3 µM | 2.132 Hz | 15.7 mM | – | – | ~2 fold | – | 0.9102 fold | 3.38E+07 | 0.0167 Hz | 1.242 Hz | 0.312 mM | – | – | 1.081 Hz | 238 µM | –
3 | B3 | – | – | – | – | – | – | – | – | – | – | – | – | 1.525 Hz | 3750 µM | 1.587 Hz | 4110 µM | Avg kcat (Hz) ([3]; Example 5 variants, substrate 2A (LAETG)): 1.14 Hz; Km ([3]; Example 5 variants, substrate 2A (LAETG), read-out: Avg KM): 6.37 mM; lower activity than that of eSrtA on its native LPETG substrate ([3]; minimal mutant, LPETG and LAETG processed): ~100 fold; Specificity (relative catalytic efficiency, fold) ([3]; ratio of kcat/KM between 2A (LAETG) and wt (LPETG)): 2.252 fold; kcat, 10 mM GGG (Hz) ([3]; substrate 2A (LAETG), 10 mM GGG): 1.249 Hz; Km ([3]; substrate 2A (LAETG), read-out: Km, LxExG): 7.16 mM
4 | B4 | – | – | – | 0.7574 Hz | 1.56 mM | – | 2.224 | 1.823 fold | – | – | 0.7269 Hz | 1.41 mM | 0.1073 Hz | 491 µM | 0.09571 Hz | 339 µM | preference for LPESG over LPETG ([1]; ratio of kcat/KM): 2 fold

From patent publication US10202593B2, “Evolved sortases and uses thereof” (President and Fellows of Harvard College, priority 2013, dated 2019)
